Assay results reported in PMC9295563, “A Reduced F420-Dependent Nitrite Reductase in an Anaerobic Methanotrophic Archaeon” (Journal of Bacteriology, 2022).
Values belong to the compound of their own block, whether it stands above or below them.

Legend:
ANME2c-FsrII-6D [1] = biological target: T1, ANME2c-FsrII-6D (uncultured archaeon, UniProt Z9BHN8L6W9); test: inhibition of F420H2-dependent nitrite reduction, F420H2 oxidation at […] nm; type: biochemical, uncultured ANME-2c archaeon; design: gene fsr; full-length two-domain protein (Fsr-N 1-341, Fsr-C 356-642); expressed from pDS701 in Methanosarcina acetivorans WWM60; F420-Sepharose purified, no tag mentioned; siroheme, FAD, about four [Fe4-S4] per subunit; settings: read-out: apparent Ki
O=NO = test: purified protein; settings: 40 μM F420H2, 2-100 μM nitrite, 0.5 mM DTT, pH 7 phosphate, anaerobic, kcat in electrons transferred per subunit
[2] = system: CN1C=C[C](c2cc[n+](C)cc2)C=C1; test: purified protein; type: biochemical, uncultured ANME-2c archaeon; settings: pH 7.0
O=S(O)O = system: T2, O=S(O)O; test: purified protein; type: biochemical, uncultured ANME-2c archaeon; settings: 408 μM reduced methyl viologen, 10-500 μM sulfite, with DTT, pH 7 phosphate, anaerobic, kcat in electrons transferred per subunit
T2 construct: full-length two-domain protein (Fsr-N 1-341, Fsr-C 356-642); expressed from pDS701 in Methanosarcina acetivorans WWM60; F420-Sepharose purified, no tag mentioned; siroheme, FAD, about four [Fe4-S4] per subunit

ANME2c-FsrII-6D [3] = biological target: T1, ANME2c-FsrII-6D; test: F420H2 oxidation at […] nm; design: gene fsr; settings: read-out: Km (μM) for the varied substrate; 500 μM nitrite, 1-80 μM F420H2, 0.5 mM DTT, pH 7 phosphate, anaerobic; kcat in electrons transferred per subunit

T1 sequence (Z9BHN8L6W9 1-642): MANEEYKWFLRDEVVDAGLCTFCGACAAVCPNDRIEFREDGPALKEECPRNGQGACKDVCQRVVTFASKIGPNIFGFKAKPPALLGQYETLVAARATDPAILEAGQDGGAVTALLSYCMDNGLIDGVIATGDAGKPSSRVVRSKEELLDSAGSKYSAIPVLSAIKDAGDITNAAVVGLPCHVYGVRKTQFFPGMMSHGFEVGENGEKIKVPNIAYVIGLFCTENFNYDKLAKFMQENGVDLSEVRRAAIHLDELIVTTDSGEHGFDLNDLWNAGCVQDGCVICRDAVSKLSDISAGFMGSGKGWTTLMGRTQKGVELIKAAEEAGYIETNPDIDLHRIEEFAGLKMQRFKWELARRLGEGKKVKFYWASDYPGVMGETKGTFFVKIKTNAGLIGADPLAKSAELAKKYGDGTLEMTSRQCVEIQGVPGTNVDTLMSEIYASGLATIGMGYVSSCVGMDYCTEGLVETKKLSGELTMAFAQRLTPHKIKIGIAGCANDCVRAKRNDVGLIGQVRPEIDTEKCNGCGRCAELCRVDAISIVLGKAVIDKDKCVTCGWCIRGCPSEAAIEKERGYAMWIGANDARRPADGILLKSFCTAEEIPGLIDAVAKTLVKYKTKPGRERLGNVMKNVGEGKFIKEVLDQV

Ki (ANME2c-FsrII-6D [1]): 130 ± 86 µM
Compound: O=S(O)O [sulfite]

Compound: ANME2c-FsrII-6D (uncultured archaeon)
Km (O=NO): 5 ± 1 µM
kcat (O=NO): 0.3 ± 0.0167 s⁻¹
kcat/Km (O=NO): 4 ± 1 (NO2^−)
Km [2]: 137 ± 26 µM
kcat/Km [2]: 0.5 ± 0.1 (MV^·+)
Km (O=S(O)O): 129 ± 20 µM
kcat (O=S(O)O): 1.07 ± 0.0667 s⁻¹
kcat/Km (O=S(O)O): 0.5 ± 0.1 (HSO3^−)

Km (ANME2c-FsrII-6D [3]): 14 ± 2 µM
Compound: F420H2
